{
  "source": "paper PMC10652106",
  "about": "“Crosstalk between the tRNA methyltransferase Trm1 and RNA chaperone La influences eukaryotic tRNA maturation”",
  "binders": {"B1": {"name": "pre-tRNA SerUGA (structured_RNA)", "RNA": "GUCACUAUGUCCGAGUGGUUAAGGAGUUAGACUUGAAUCCUGUCUAGUCAUCUAAUGGGCUUUGCCCGCGCAGGUUCAAAUCCUGCUGGUGACGGUAUUU"}},
  "key": {"[1]": {"molecular_target": "T1, Trm1 M24 (nuclear isoform, WT) (Schizosaccharomyces pombe, UniProt Q9P804 24-548)", "T1 sequence": "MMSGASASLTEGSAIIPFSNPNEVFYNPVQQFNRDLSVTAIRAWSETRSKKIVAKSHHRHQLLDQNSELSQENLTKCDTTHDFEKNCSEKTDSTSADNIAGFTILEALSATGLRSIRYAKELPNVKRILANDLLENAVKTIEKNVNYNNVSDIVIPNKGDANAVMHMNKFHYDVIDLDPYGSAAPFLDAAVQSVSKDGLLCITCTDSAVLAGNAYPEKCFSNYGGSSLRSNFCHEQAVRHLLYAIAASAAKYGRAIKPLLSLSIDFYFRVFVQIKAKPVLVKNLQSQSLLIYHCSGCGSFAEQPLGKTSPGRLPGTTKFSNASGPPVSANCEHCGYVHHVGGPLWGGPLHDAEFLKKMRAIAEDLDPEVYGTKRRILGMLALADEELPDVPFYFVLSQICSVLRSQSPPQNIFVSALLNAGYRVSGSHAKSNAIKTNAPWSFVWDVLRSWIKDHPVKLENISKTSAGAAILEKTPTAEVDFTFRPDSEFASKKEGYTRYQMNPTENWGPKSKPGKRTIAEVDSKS", "test": "EMSA; replicate 1 of 3; Hill coefficient 7.061; no SAM listed; EMSA: 20 mM Tris-HCl pH 7.6, 100 mM KCl, 0.2 mM EDTA, 1 mM DTT; 32 °C 20 min, ice 2 min; 8% native gel at 4 °C", "details": "protein: recombinant; label: 32P (alpha-ATP, internal); tRNA fold, single strand"}, "[2]": {"molecular_target": "T2, Trm1 M24 D201A (catalytic-dead) (Schizosaccharomyces pombe, UniProt Q9P804 24-548, D201A)", "T2 sequence": "T1 sequence with D178A", "test": "EMSA; affinity comparable to WT; Kd values not in material; no SAM listed; EMSA: 20 mM Tris-HCl pH 7.6, 100 mM KCl, 0.2 mM EDTA, 1 mM DTT; 32 °C 20 min, ice 2 min; 8% native gel at 4 °C", "details": "protein: recombinant; label: 32P (alpha-ATP, internal); tRNA fold, single strand"}},
  "note": "Positions count from the first letter of the chain named.",
  "data": [
    {"binder": "B1", "values": [
      {"measurement": "Kd", "setting": "[1]", "value": 576, "unit": "nM"},
      {"measurement": "binding result", "setting": "[2]", "value": "binds"}
    ]}
  ]
}
